Among the data in US20190224279A1, “PHARMACEUTICAL ASSOCIATION COMPRISING A GROWTH FACTOR RECEPTOR AGONIST CONJUGATED TO A BIOACTIVE CARRIER FOR CONVERTING A NEOPLASTIC CELL INTO A NON-NEOPLASTIC CELL AND USES THEREOF” (HISTIDE AG, priority 2015, published 2019) are p-Smad1/5/8 (%) values, retold here.

The target in this assay is growth factor receptors. Nature of the assay: cell-based or functional assay.

No end group written: not given here.

VPARLSPISILYIDAANNVVYKQYEDMVKS (not fully specified) [GFR-binding compound of SEQ ID NO: 93] yielded a p-Smad1/5/8 (%) of 44%.
Take VPQALSPISILFIRLKPHQGHLGEMSNMVVR (not fully specified) [GFR-binding compound of SEQ ID NO: 85]: the p-Smad1/5/8 (%) came to 26%.
The same measure for VPEKMSSLSILFFDENKNAALKVYPNMTVE (not fully specified) [GFR-binding compound of SEQ ID NO: 92]: 52%; for VPTKLSPISILYIDKMGVPTYKQYEEGMSVAE (not fully specified) [GFR-binding compound of SEQ ID NO: 82]: 35%.
The molecule VPARLSPISILYIDEMGVPTYKQYEEGMSVAE (not fully specified) [GFR-binding compound of SEQ ID NO: 83] displayed a p-Smad1/5/8 (%) of 33%.
As for VPTKLSPISILYIDDMGVPTYKQYEEGMSVAE (not fully specified) [GFR-binding compound of SEQ ID NO: 67], the figure is 40%.
The same measure for VPQALSPISILYIDDMGVPTYKQYEEGMSVAE (not fully specified) [GFR-binding compound of SEQ ID NO: 68]: 39%; for VPEKMSSLSILFFDENKNVVLKVYPNMAVS (not fully specified) [GFR-binding compound of SEQ ID NO: 73]: 44%.
In turn, VPARLSPISILYIDAANNVVYKQYEDM (not fully specified) [GFR-binding compound of SEQ ID NO: 74] gave a p-Smad1/5/8 (%) of 51%.
The same measure for VSQDLSAISTLYLKIVRKEPLKNYQEMVEE (not fully specified) [GFR-binding compound of SEQ ID NO: 98]: 39%; for VPTELSPISILFIRIKPHQGHLGEMSAAVVE (not fully specified) [GFR-binding compound of SEQ ID NO: 70]: 30%.
Consider SRVHHNAISTLYFDESSNVILKKYRGMSVVE (not fully specified) [GFR-binding compound of SEQ ID NO: 91], for which the p-Smad1/5/8 (%) turned out to be 56%.
The same measure for TPTKMSPINMLYFNEKNNIIYGKIPGMVVD (not fully specified) [GFR-binding compound of SEQ ID NO: 76]: 55%; for ASASPSSVPQDLEPLTILYYVGRTPKVEQLSNMV (not fully specified) [GFR-binding compound of SEQ ID NO: 65]: 38%.
APTQLSAISTLYLEIVRKKPLKNYQFLQHNK (not fully specified) [GFR-binding compound of SEQ ID NO: 77]: the p-Smad1/5/8 (%) worked out at 52%.
The same measure for VPTHHSAISTLYLELAGEKPLKNYQFLQHNK (not fully specified) [GFR-binding compound of SEQ ID NO: 96]: 47%; for RNVQCRPTQLEPLPIVYYEIVRKKPEQLSNTLE (not fully specified) [GFR-binding compound of SEQ ID NO: 95]: 29%.
Molecule ASASPSSVPQDLEPLTILYYVGRTPKVEQLSNMVEDH (not fully specified) [GFR-binding compound of SEQ ID NO: 80] yielded a p-Smad1/5/8 (%) of 34%.
Regarding APTKLEPLPMVYYEERRNVIEQLSNNMVVR (not fully specified) [GFR-binding compound of SEQ ID NO: 86], the p-Smad1/5/8 (%) was 34%.
As for TQVQLEPLTLLYYDENEKVIEQLSNDMVVE (not fully specified) [GFR-binding compound of SEQ ID NO: 71], the figure is 47%; as for VPQALSPINMLYFNEKNQIIYGKIPFLQHNK (not fully specified) [GFR-binding compound of SEQ ID NO: 75], 54%; as for TPTKMSPINMLYFNEKNNIIYGKIPGM (not fully specified) [GFR-binding compound of SEQ ID NO: 94], 41%.
On to APTQLSAISTLYLEIVRKKPLKNYQEMEDH (not fully specified) [GFR-binding compound of SEQ ID NO: 78], for which the p-Smad1/5/8 (%) was 58%.
The same measure for APTKLEPLTIVYYDDSSNVIEQLSNNMVVR (not fully specified) [GFR-binding compound of SEQ ID NO: 88]: 32%; for VPTKLSAISTLYLDLAREEPLKNYQEMVVE (not fully specified) [GFR-binding compound of SEQ ID NO: 87]: 38%.
As for VPTEESNITTQIMRIKPHQGQHIGEMSFLQH (not fully specified) [GFR-binding compound of SEQ ID NO: 84], the figure is 22%; as for VPTEESNITTQIMRIKPHQGQHIGEMSFLQH (not fully specified) [GFR-binding compound of SEQ ID NO: 69], 32%; as for NDEGLECVPTEERPVQVRKIRIKPHQGQKKATVFLQHNK (not fully specified) [GFR-binding compound of SEQ ID NO: 64], 36%.
As for NDEGLECVPTEERPVQVRKIRIKPHQGQKKATVFLQHNK (not fully specified) [GFR-binding compound of SEQ ID NO: 79], the figure is 27%; as for VPTELSPISILFIVGGKPKVYKQYENMVVE (not fully specified) [GFR-binding compound of SEQ ID NO: 90], 36%.
As to VPTHHSAISMLYLELGGDKPLENYQFLQ (not fully specified) [GFR-binding compound of SEQ ID NO: 97], the p-Smad1/5/8 (%) came to 46%.
The same measure for VPQALSPISILFIVGRKPKVYKQYEMIVERS (not fully specified) [GFR-binding compound of SEQ ID NO: 89]: 41%; for VPQALNAISTLYFDDSSNVILKKYRNMAVS (not fully specified) [GFR-binding compound of SEQ ID NO: 72]: 48%.
The same measure for RNVQCRPTQLEPLPIVYYEIVRKKPEQLSNTLEDHLA (not fully specified) [GFR-binding compound of SEQ ID NO: 81]: 41%.
As for RNVQCRPTQLEPLPIVYYEIVRKKPEQLSNTLEDHLA (not fully specified) [GFR-binding compound of SEQ ID NO: 66], the p-Smad1/5/8 (%) turned out to be 38%.
